“Also recorded” adds a separate entry of the source.
Assays:
[1] = test system: hfRPE cells; assay: immunoblotting of JAK-STAT / MAP kinase signalling proteins in hfRPE; type: cell-based, human
Protocol: Immunoblotting was performed as previously described in Li, R. et al., 2007, Invest Ophthalmol Vis Sci, 48, 5722-5732, incorporated by reference in its entirety herein. Primary cultures of hfRPE and native human adult RPE cells were lysed using RIPA buffer (Sigma-Aldrich) supplemented with proteinase inhibitor cocktail (Roche). Total protein in the supernatant was measured (BCA™ protein assay, Pierce Biotechnology) and 20 µg of protein from cell lysate supernatants was electrophoresed on a 4-12% gradient Bis-Tris NuPAGE gel (Invitrogen) under reduced or non-reduced conditions. Resolved proteins were transferred to nitrocellulose membranes (membranes and XCell II™ Blot Module, Invitrogen).
The membranes were incubated with mouse anti-human IFNγ R1 monoclonal antibody (R&D Systems), anti-human IFNγ R2 (Santa Cruz Biotechnology), anti-human IFNAR1, anti-human IFNAR2 (Abcam), anti-IRF1, anti-IRF2, anti-IRF8 (Santa Cruz Biotechnology) or anti-CFTR antibody 217 (Cystic Fibrosis Foundation Therapeutics Inc., Bethesda, Md.), after blocking non-specific binding ((StartingBlock™ T20 (TBS), Pierce Biotechnology). Membranes were then incubated with horseradish peroxidase (HRP) conjugated secondary antibody (Pierce Biotechnology) and visualized using Supersignal® West Dura Extended Duration Substrate (Pierce Biotechnology) and imaged using an Autochemie™ system (UVP, Upland, Calif.). The antibody-specific bands for IRF-1, IRF-2, ICSBP (IRF-8) and GAPDH were around 91 kDa, […], respectively.
For phosphorylation studies, cells were starved for 24 hours in serum-free medium (“SFM,” MEM-α modification medium containing non-essential amino acids and Glutamine-Penicillin-Streptomycin). Cells were treated with IFNγ (5-50 ng/ml) in SFM at various time points at 37° C. and lysed with RIPA buffer supplemented with proteinase inhibitor cocktail (Roche) and Halt™ phosphatase inhibitor cocktail (Pierce Biotechnology). 40 μg of protein was electrophoresed. As in the immunoblotting experiments described above, except that the membranes were incubated with anti-phospho-p38 MAP kinase (Thr180/Tyr182), anti-p38 MAP kinase, anti-phospho-Stat1 (Tyr701), anti-phospho-Stat1 (Ser727) or anti-Stat1 antibodies, respectively (each from Cell signaling Technology, Danvers, Mass.). The antibody-specific bands for STAT1/phospho-STAT1 (Tyr701) were around 84 kDa. GAPDH was blotted together with anti-GAPDH antibody (Abcam) and used as loading control. Cyclohexamide (“CHX”; Sigma-Aldrich), a protein synthesis inhibitor, was used at 62 μM.
For CFTR immunoblotting analysis, confluent monolayers of hfRPE were homogenized on ice in isolation solution (250 mM Sucrose, 10 mM Tris-HCl, 10 mM MgCl2, 1 mM CaCl2, pH 7.4) supplemented with Halt™ protease inhibitor cocktail, EDTA-free. Nuclei and intact cells were removed with centrifugation (900×g for 10 minutes at 4° C., followed by centrifugation at 10,000×g for 5 minutes). Crude plasma membrane proteins were collected after centrifugation at 100,000×g for 1 hour at 4° C.

[2] = test system: hfCHC cells; assay: BrdU incorporation assay, human fetal choroidal cell proliferation; type: cell-based
[3] = test system: hfRPE cells; assay: wound healing assay, hfRPE migration; type: cell-based, human; conditions: 48 hours, proliferation suppressed with mitomycin C
Protocol: The wound healing assay was used to study the effects of inflammatory cytokines on hfRPE cell migration, as described previously in Li, R., et al. Invest Ophthalmol Vis Sci, 2007, 48, 5722-5732, incorporated herein by reference in its entirety. Cell proliferation was suppressed by incubation with 10 μg/ml mitomycin C (Sigma) for 2 hours before all migration experiments. A circular denuded area (7 mm in diameter) was made in each well using a custom designed cell scraper. After incubation with various inflammatory cytokines for 48 hours, cells were fixed with cold methanol and stained with ethidium homodimer-1 (EthD-1, Invitrogen) according to the manufacturer's instructions. Cell migration was quantified by counting the average number of cells that migrated into the denuded area in 16 microscope fields surrounding the circumference of the denuded area. Each condition was tested in triplicate and repeated using cells from different donors.

[4] = test system: hfRPE cells; assay: cyclic AMP assay (cAMP-screen ELISA); type: cell-based, human; conditions: IFNγ 0.5, 5, 50 ng/ml, all time points
Protocol: Intracellular cAMP levels were assayed with a cAMP-screen ELISA system (Applied Biosystems) following the manufacturer's protocol. Briefly, confluent monolayers of hfRPE cells cultured in 24-well plates were starved in SFM for 4 hours and then treated with IFNγ (0.5, 5, and 50 ng/ml), forskolin (10 μM), or forskolin (10 μM) and isobutylmethylxanthine (IBMX; 0.5 mM) for 5 minutes, 30 minutes, 4 hours, 16 hours, or 24 hours. For some of the experiments, cells were treated with IBMX (0.5 mM) for 30 minutes, and then IFNγ or forskolin was added. Cells were lysed and the supernatant collected after centrifugation. Samples were incubated with anti-cAMP antibody and cAMP-AP in a 96-well assay plate; serial dilutions of cAMP served as standards. The plate was incubated with substrate and the chemiluminescence signal measured with a SpectraMax M2 microplate reader (Molecular Devices). The standard curve was obtained by best fit with a weighted 4-parameter logistic curve and the cAMP concentration was calculated and normalized with total protein concentration.

B1: IFNγ: pleiotropic cytokine produced by T- and NK-cells; obtained from Peprotech (protein, UniProt P01579 24-161, looked up)
Interferon gamma: QDPYVKEAENLKKYFNAGHSDVADNGTLFLGILKNWKEESDRKIMQSQIVSFYFKLFKNFKDDQSIQKSVETIKEDMNVKFFNSNKKKRDDFEKLTNYSVTDLNVQRKAIHELIQVMAELSPAAKTGKRKRSQMLFRG
In the case of B1, the STAT1 tyrosine phosphorylation ([1]; IFNγ 5 ng/ml, 15 minutes) is reported as “tyrosine phosphorylated”, the IRF-1 protein ([1]; IFNγ 4 hours) is reported as “activated; also recorded: significantly increased” and the IRF-2 protein ([1]; IFNγ 4 hours) is reported as “unaffected; also recorded: no effect”. The “IRF-8 (ICSBP) protein” value ([1]; IFNγ-treated hfRPE) was “below the detection limit; also recorded: no detectable change”, the “effect on CFTR protein level” value ([1]; IFNγ-treated hfRPE, not statistically significant) was “small decrease” and the STAT1 protein signal ([1]; after IFNγ treatment) was “significantly increased; also recorded: significantly up-regulated”. The “effect on JNK or P44/P42 phosphorylation” value ([1]; all six time points tested) was “no effect”, the “period over which IFNγ-induced phosphorylation of STAT1 was observed” value ([1]; hfRPE) was 2 to 48 h and the “time to IFNγ-induced phosphorylation of P38 MAPK” value ([1]; hfRPE, serum starved 24 hours) was 2 to 5 min. The “effect on hfCHC (human fetal choroidal) cell proliferation” value [2] was “stimulatory effect”, the “effect on hfRPE cell migration” value [3] was “significantly inhibited” and the “effect on total intracellular cAMP” value [4] was “no apparent effect”.
